Results on 1 molecule are retold here after article doi:10.1101/2024.01.22.576510 (bioRxiv, 2024).

This assay deals with human Na+-taurocholate co-transporting polypeptide (NTCP), detergent-purified, tags cleaved (Homo sapiens, UniProt Q14973). In words: cryo-EM structure.
human Na+-taurocholate co-transporting polypeptide (NTCP), detergent-purified, tags cleaved, sequence (Q14973 whole entry): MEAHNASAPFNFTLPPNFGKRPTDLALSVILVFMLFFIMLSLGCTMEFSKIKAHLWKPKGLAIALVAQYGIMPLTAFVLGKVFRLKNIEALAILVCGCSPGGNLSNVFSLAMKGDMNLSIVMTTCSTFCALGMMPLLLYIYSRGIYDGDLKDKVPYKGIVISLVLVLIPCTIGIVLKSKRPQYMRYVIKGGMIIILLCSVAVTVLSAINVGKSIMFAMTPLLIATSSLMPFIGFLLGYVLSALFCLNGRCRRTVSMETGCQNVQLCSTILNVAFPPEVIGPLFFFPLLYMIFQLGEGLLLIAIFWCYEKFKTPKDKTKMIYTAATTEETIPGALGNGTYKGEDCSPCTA

B1: Fab3 (Fab, V domains shown)
VH: EVQLVESGGGLVQPGGSLRLSCAASGFNVSSSYIHWVRQAPGKGLEWVASISPYYSYTSYADSVKGRFTISADTSKNTAYLQMNSLRAEDTAVYYCARYQYDYYYSYYAGLDYWGQGTLVTVSS
VL: DIQMTQSPSSLSASVGDRVTITCRASQSVSSAVAWYQQKPGKAPKLLIYSASSLYSGVPSRFSGSRSGTDFTLTISSLQPEDFATYYCQQYRYSLITFGQGTKVEIK
Take B1: the binding result is “binds”.
